Measurements: patent publication US8975044B2, “Polynucleotides encoding for frizzled-binding agents and uses thereof” (OncoMed Pharmaceuticals, Inc., priority 2008, dated 2015)
Where a chain is given by its changes, count along the chain named. Entries after “also recorded” stand apart in the source; their conditions may differ.

T1: FZD8 (Homo sapiens, UniProt Q9H461, H70A/Q71E)
T1 construct: N-terminus of the Fri domain of FZD8 in turn fused to the transmembrane domain and intracellular domain of CD4 protein; expressed in transfected cells; host or cells: HEK293
T1 sequence (Q9H461 28-158 H70A/Q71E): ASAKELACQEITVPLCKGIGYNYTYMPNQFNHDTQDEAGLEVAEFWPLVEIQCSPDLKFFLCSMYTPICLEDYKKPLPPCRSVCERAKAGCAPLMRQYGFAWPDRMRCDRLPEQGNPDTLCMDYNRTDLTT

T2: FZD8 (Homo sapiens, UniProt Q9H461, G66A/L67A)
T2 construct: N-terminus of the Fri domain of FZD8 in turn fused to the transmembrane domain and intracellular domain of CD4 protein; expressed in transfected cells; host or cells: HEK293
T2 sequence (Q9H461 28-158 G66A/L67A): T1 sequence (Q9H461 28-158 H70A/Q71E) with G39A, L40A, A43H, E44Q

B1: 18R5: human anti-FZD antibody; VH SEQ ID NO:10 (as 18R8), VL SEQ ID NO:14; binds FZD1, 2, 5, 7, 8 (antibody, V domains shown)
VH: EVQLVESGGGLVQPGGSLRLSCAASGFTFSHYTLSWVRQAPGKGLEWVSVISGDGSYTYYADSVKGRFTISSDNSKNTLYLQMNSLRAEDTAVYYCARNFIKYVFANWGQGTLVTVSS
VL: DIELTQPPSVSVAPGQTARISCSGDNIGSFYVHWYQQKPGQAPVLVIYDKSNRPSGIPERFSGSNSGNTATLTISGTQAEDEADYYCQSYANTLSLVFGGGTKLTVLG
modifications: 18R5/18R8 heavy chain variable region (VH); 18R5 light chain variable region (VL)
B2: 18R8: human anti-FZD antibody from phage display; VH SEQ ID NO:10, VL SEQ ID NO:12; binds FZD1, 2, 5, 7, 8 (antibody, V domains shown)
VH: B1 VH
VL: DIELTQPPSVSVAPGQTARISCSGDKLGKKYASWYQQKPGQAPVLVIYEKDNRPSGIPERFSGSNSGNTATLTISGTQAEDEADYYCSSFAGNSLEVFGGGTKLTVLG
modifications: 18R5/18R8 heavy chain variable region (VH); 18R8 light chain variable region (VL)
B3: 44R24: anti-FZD5/8 IgG antibody, VH SEQ ID NO:85, VL SEQ ID NO:86; ATCC deposit no. PTA-10311 (antibody, V domains shown)
VH: EVQLVESGGGLVQPGGSLRLSCAASGFTFSSYYITWVRQAPGKGLEWVSTISYSSSNTYYADSVKGRFTISRDNSKNTLYLQMNSLRAEDTAVYYCARSIVFDYWGQGTLVTVSS
VL: DIELTQPPSVSVAPGQTARISCSGDALGNRYVYWYQQKPGQAPVLVIPSGIPERFSGSNSGNTATLTISGTQAEDEADYYCGSWDTRPYPKYVFGGGTKLTVLG
modifications: 44R24 VH; 44R24 VL
notes: ATCC deposit no; PTA-10311

Tests used:
Wnt target genes = test: qPCR of Wnt target genes in liver of OMP-PN13-bearing mice; assay type: in vivo, NOD/SCID mice
Experimental: Frozen OMP-PN13 tumor cells that have been passaged twice in mice were obtained from Oncomed's tumor bank. They were thawed and injected subcutaneously into the left flank of NOD/SCID mice immediately following thawing. ˜ 25,000 viable cells were injected per animal. The mice were monitored weekly for tumor growth. After their onset, the size of the tumors was measured once weekly by caliper. 200-300 mm^3 tumor-bearing mice were dispatched in treatment groups that each contained 5 animals. […] Ab treatment was initiated the day after randomization. LZ1 was used as the negative control Ab. 3 doses of 10 mg/kg of Ab were administered via intra-peritoneal injection over a 12-day period. Mice were euthanized 24 hours after the last injection. Tumor, duodenum and liver were harvested.
Total RNAs were also extracted from tumor, duodenum and liver for Wnt target gene expression analyses using qPCR.
Tissues were immediately transferred into RNAlater (QIAGEN) at the time of harvest. RNA was extracted using the QIAGEN RNeasy for Fibrous Tissue mini kit according to the manufacturer instructions. 50 ng total RNA were submitted to gene expression analyses using ABI one-step RT-PCR protocol and reagents. GusB gene expression was used as endogenous control. Triplicates were setup for each sample. All 5 tumors of each treatment group were analyzed. ABI 7900 TaqMan machine was used to run the experiments. ABI SDS 2.2.1 software was used to analyze the data and calculate DeltaCt values that were converted into relative quantities. The triplicate values of all 5 tumors were averaged for each treatment group. Fold inhibition factors were then calculated relative to control antibody (LZ1).

FZD8 [1] = target: T1, FZD8; test: Epitope mapping by FACS on FZD8 Fri domain variants on HEK293 cells; assay type: binding; settings: residues 70-71 changed from HQ to AE
Experimental: (§1) To identify the FZD epitope recognized by the 18R8 IgG antibody, epitope mapping was performed. Flow cytometry analysis of cell surface expressed FZD was utilized to measure antibody binding. Mammalian expression plasmid vectors comprising a CMV promoter upstream of polynucleotides that encode an N-terminal signal sequence FLAG epitope tag fused to the N-terminus of the Fri domain of FZD8 in turn fused to the transmembrane domain and intracellular domain of CD4 protein were generated by standard recombinant technology. This expression construct allows expression of the FZD8 Fri domain on the cell surface, as well as expression of a FLAG epitope tag to monitor expression. Site-direct mutagenesis was then used to modify selected amino acids within the extracellular domain of FZD. HEK293 cells were co-transfected with expression vectors encoding the FZD and the transfection marker GFP. Forty-eight hours post-transfection, cells were collected in suspension and incubated on ice with anti-FZD antibody or control IgG to detect background antibody binding. The cells were washed and primary antibodies detected with anti-antibody secondary antibodies conjugated to a fluorescent chromophore. Labeled cells were then analyzed by flow cytometry to measure the binding of anti-FZD antibody to cell surface FZD.
(§2) Epitope mapping for the anti-FZD antibody 44R24 was performed in a manner similar to that described above in Example 5 for the antibodies 18R8 and 18R5. The ability of 44R24 to bind to a similar epitope as 18R8 was assessed by flow cytometry using a series of amino acid variants of FZD8 previously shown to disrupt binding of 18R8 (see Example 5 and FIGS. 6 and 7).

FZD8 [2] = target: T2, FZD8; test: as above; assay type: binding; settings: amino acids 66-67 mutated from GL to AA
Experimental: as §1, §2

Wnt signaling pathway = test: 8xTCF luciferase reporter assay in STF293 cells with Wnt3A-conditioned medium; assay type: cell-based, human; settings: range of antibody concentrations, 18 hours
Experimental: STF293 cells were cultured in DMEM supplemented with antibiotics and 10% FCS. The STF293 cells are 293 cells in which the following have been stably integrated: (1) an 8×TCF Luc reporter vector containing […] of the TCF binding site linked to a promoter upstream of a firefly luciferase reporter gene to measure canonical Wnt signaling levels (Gazit et al., 1999, Oncogene 18:5959-66) and (2) a Renilla luciferase reporter (Promega; Madison, Wis.) as an internal control for transfection efficiency. The cells were added to cultures plates. The FZD antibodies to be tested (or no antibodies) were added. The cells were then incubated in the presence or absence of Wnt3A-conditioned medium that had been prepared from L cells that stably express Wnt3a (ATCC CRL-2647) or control conditioned media from L cells not overexpressing Wnt3A (ATCC cell line CRL-2648). After overnight incubation, luciferase levels were measured using a dual luciferase assay kit (Promega; Madison, Wis.) with firefly luciferase activity normalized to Renilla luciferase activity.
The ability of the 18R8 and 18R5 antibodies to inhibit Wnt-induced pathway activation was thus determined. STF293 cells were treated with different concentrations of 18R8 or 18R5 IgG antibodies and Wnt3A-conditioned medium was added. The cells were assayed 18 hours later using the dual luciferase assay kit.

FZD1 = test: Biacore affinity to recombinant Fzd Fc protein; assay type: binding, human; settings: IgG antibody; Fzd Fc immobilized on CM5 Biacore chip
Experimental: (§3) The KDs of 18R8 and 18R5 antibodies were determined using the Biacore 2000 system from Biacore Lifescience (GE Healthcare). Specifically, purified anti-Fzd7 antibodies were serially diluted in 2-fold increments from 100 to 0.78 nM in HBS-P (0.01 M HEPES pH 7.4, 0.15 M NaCl, 0.005% v/v Surfactant P20). Each dilution was tested against recombinant Fzd Fc proteins immobilized onto a CM5 Biacore chip. The association and dissociation rates were measured and KD values determined using the Biaevaluation software program (Table 5, below).

FZD5 = test: Biacore affinity to recombinant Fzd Fc protein; assay type: binding, human; settings: IgG antibody; Fzd Fc immobilized on CM5 Biacore chip
Experimental: as §3

FZD2 = test: Biacore affinity to recombinant Fzd Fc protein; assay type: binding, human; settings: IgG antibody; Fzd Fc immobilized on CM5 Biacore chip
Experimental: as §3

[3] = fold relative to control antibody LZ1, 3 doses of 10 mg/kg over 12 days

FZD5, sequence (Q13467 27-150 limits assumed): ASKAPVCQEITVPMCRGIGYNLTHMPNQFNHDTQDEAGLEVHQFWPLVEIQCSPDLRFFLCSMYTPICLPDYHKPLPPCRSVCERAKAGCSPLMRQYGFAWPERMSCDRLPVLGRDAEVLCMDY

Row | Molecule | Liver GluI (Wnt target genes; [3]) [x] | Liver Lect2 (Wnt target genes; [3]) [x] | Liver Lgr5 (Wnt target genes; [3]) [x] | inhibition of Wnt target gene in liver (Wnt target genes; relative to LZ1) [×] | binding to FZD8 variant (FZD8 [1]) | binding to FZD8 variant (FZD8 [2]) | inhibition of Wnt3A-induced TCF signaling (Wnt signaling pathway) | Kd (FZD1) [nM] | Kd (FZD5) [nM] | Kd (FZD2) [nM] | Liver Axin2 (Wnt target genes; [3]) [x] | Liver Rhbg (Wnt target genes; [3]) [x]
1 | B1 | −19 | −8 | −26 | 8 | reduced staining | reduced staining | Greater inhibition; also recorded: inhibit Wnt signaling | 4.6 | 1.9 | 3.3 |  | 
2 | B2 |  |  |  |  | clearly diminished | similarly lost | inhibit Wnt signaling | 15.6 | 4.2 | 6.2 |  | 
3 | B3 |  |  |  |  |  |  |  |  |  |  | −2.4 | −1.9
